Experiment [1] addresses T1, chicken gizzard Tpm (Gallus gallus, UniProt P19352).
T1 construct: purchased Sigma; host or cells: chicken gizzard (tissue-derived, as the name says)
In words: Binding to immobilized Tpm in a 96 well plate (biotin-HKa competition or direct binding). How it is done:
Plates are coated at room temperature with chicken gizzard Tpm (Sigma) in Tris buffer-saline (TBS) (200 ng/well). After incubation for 2 hours, wells are washed with TBS, then 1% BSA/TBS/Tween-20 is added to each well and incubate at 37° C. for two hours. HKa (Enzyme Laboratories) that had been previously biotinylated with EZ-Link (Pierce) according to the manufacturers instructions, is added to the plate at a concentration of 10 nM together with ZnCl2 (10 μM) and the appropriate concentration of the protein, domain or peptide competitor. The plates are incubated at room temperature and then washed with TBS/Tween-20. Avidin-HRP is added, incubated for 20 minutes at room temperature, washed with TBS/Tween-20 and the chromogenic substrate is added. The reaction is stopped with sulfuric acid and the plate read at 490 nm.
The IC50 for the displacement of biotinylated-HKa for the peptides shown in Table 5 was determined as follows: 10 nM biotin-HKa is added to a 96 well plate previously coated with 200 ng of chicken gizzard Tpm in the presence of 10 μM ZnCl2. Increasing amounts of the peptides are added to the wells. The remaining biotin-HKa bound to Tpm was detected using avidin-HRP and a chromogenic substrate. A Kd was determined by non-linear regression analysis of the empirical data. The effect on the Matrigel Plug assay was determined as follows: Matrigel (0.5 mL) containing 400 ng/ml of bFGF, 50 μg/ml heparin with or without the peptide (300 μM) or saline buffer are injected in the flanks of a mouse. After five days, the plugs are removed and the plugs scanned.
The N-terminus of the pentapeptide HHPHG has been derivatized (capped) in an attempt to increase the pentapeptides' affinity to Tpm by increasing productive molecular contacts (or interactions). […] The IC50 for the displacement of biotinylated-HKa for the capped peptides shown in the table was determined as follows: 10 nM biotin-HKa was added to a 96 well plate previously coated with 200 ng of chicken gizzard Tpm in the presence of 10 μM ZnCl2. Increasing amounts of the peptides were added to the wells. The remaining biotin-HKa bound to Tpm was detected using avidin-HRP and a chromogenic substrate. A Kd was determined by non-linear regression analysis of the empirical data

In experiment [2] the target is hTm3 (Homo sapiens, UniProt P09493). The following applies: SPR, MacDonald et al. 2001; read-out: Kd of binding to immobilized hTm3; cited from earlier work. Background: SPR reads the build-up and loss of mass on a sensor chip optically.
Chain of hTm3 (P09493 1-284 isoform P09493-3): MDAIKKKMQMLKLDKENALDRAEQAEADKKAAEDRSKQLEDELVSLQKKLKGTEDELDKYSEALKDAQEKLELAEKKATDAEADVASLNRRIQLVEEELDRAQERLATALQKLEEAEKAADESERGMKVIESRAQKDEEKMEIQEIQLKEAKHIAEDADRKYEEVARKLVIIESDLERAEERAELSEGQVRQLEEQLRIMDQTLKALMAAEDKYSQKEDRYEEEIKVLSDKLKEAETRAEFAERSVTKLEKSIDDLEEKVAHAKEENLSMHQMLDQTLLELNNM
Experiment [3] addresses T1, chicken gizzard Tpm. In words: Binding of HKa to purified Tpm immobilized in 96 well microplates. The following applies: for inhibition of binding of HKa to purified immobilized Tpm (in words): 20 nM biotin-HKa, 10 μM Zn2+. How it is done: To measure the binding of HKa to purified Tpm, 96 well microplates were coated with 20 μg/ml of chicken gizzard Tpm (Sigma), or bovine serum albumin (BSA), as a control. Wells were then blocked by incubation with phosphate buffered saline containing 5% nonfat milk, and incubated with increasing concentrations of HKa (0.01-20 nM) for 2 hours. Specifically-bound HKa was quantitated as described for cell binding assays (van Iwaarden et al., supra, and by assessing the ability of a 100-fold molar excess of unlabeled HKa to compete with biotin-HKa for binding.
In selected experiments, the ability of mAb TM-311 and recombinant HKa D5 to inhibit the binding of biotin-HKa to Tpm was assessed. These studies allowed determination of the Kd for binding of HKa D5 to Tpm using the equation: Kd (D5)=IC50/(1+[HKa]/Kd (HKa)) where IC50 is the concentration of HKa D5 that inhibited HKa binding by 50%, and Kd(HKa) is the Kd for binding of HKa to Tpm.

Experiment [4] has as its system HUVEC. The experiment in a line: EC proliferation assay (growth factor-induced). As to conditions: bFGF 10 ng/ml; 20 nM HKa, 60 nM HKa domain 5. The format is cell-based, human. The protocol: EC proliferation assays. The effect of HKa on ECs in the absence or presence of mAb TM-311 was initially assessed using a proliferation assay, as described in Zhang et al., supra. Relative numbers of cells remaining in each well of a 96 well microplate after incubation for 48 hours in the absence or presence of HKa were determined using the Aqueous® cell proliferation assay (Promega, Madison, Wis.). Results are presented as the percent inhibition of bFGF-induced EC proliferation, which essentially reflects the extent of HKa-induced EC apoptosis. Though bFGF was used as the EC mitogen in most studies of the studies described herein, identical results were obtained using VEGF.

Setting [5] is: plate coated with 200 ng chicken gizzard Tpm, 10 μM ZnCl2.
Where [6] appears, read: competition with 10 nM biotin-HKa.

The source of these data is US20050124794A1, “Cell surface tropomyosin as a target of angiogenesis inhibition” (priority 2002, published 2005).

T1 sequence (P19352 1-284 isoform P19352-2): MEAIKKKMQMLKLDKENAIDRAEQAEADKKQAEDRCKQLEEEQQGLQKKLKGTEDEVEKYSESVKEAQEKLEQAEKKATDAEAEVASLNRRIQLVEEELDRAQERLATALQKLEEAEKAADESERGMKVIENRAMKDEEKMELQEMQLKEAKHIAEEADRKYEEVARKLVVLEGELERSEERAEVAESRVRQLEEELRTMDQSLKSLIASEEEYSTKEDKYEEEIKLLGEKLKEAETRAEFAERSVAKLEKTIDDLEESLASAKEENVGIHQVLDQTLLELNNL
T1 sequence (P04268 1-284 isoform P04268-2 F73S/I172L/T199L/N203E/L204A partner): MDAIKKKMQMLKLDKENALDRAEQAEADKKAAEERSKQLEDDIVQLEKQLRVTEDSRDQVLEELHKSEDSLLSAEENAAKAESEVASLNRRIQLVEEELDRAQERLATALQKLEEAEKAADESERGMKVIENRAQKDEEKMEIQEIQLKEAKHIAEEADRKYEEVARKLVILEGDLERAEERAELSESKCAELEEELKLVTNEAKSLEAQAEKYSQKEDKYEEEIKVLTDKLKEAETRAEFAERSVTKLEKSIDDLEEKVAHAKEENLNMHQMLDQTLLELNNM

B1: rabbit HPRG: rabbit Histidine-Proline-Rich Glycoprotein, SEQ ID NO:22 (protein)
chain: LTPTDCKTTKPLAEKALDLINKWRRDGYLFQLLRVADAHLDGAESATVYYLVLDVKETDCSVLSRKHWEDCDPDLTKRPSLDVIGQCKVIATRYSDEYQTLRLNDFNCTTSSVSSALANTKDSPVLFDFIEDTEPFRKSADKALEVYKSESEAYASFRVDRVERVTRVKGGERTNYYVDFSVRNCSRSHFHRHPAFGFCRADLSFDVEASNLENPEDVIISCEVFNFEEHGNISGFRPHLGKTPLGTDGSRDHHHPHKPHKFGCPPPQEGEDFSEGPPLQGGTPPLSPPFRPRCRHRPFGTNETHRFPHHRISVNIIHRPPPHGHHPHGPPPHGHHPHGPPPHGHPPHGPPPRHPPHGPPPHGHPPHGPPPHGHPPHGPPPHGHPPHGPPPHGHPPHGHGFHDHGPCDPPSHKEGPQDLHQHAMGPPPKHPGKRGPGKGHFPFHWRRIGSVYQLPPLQKGEVLPLPEANFPQLLLRNHTHPLKPEIQPFPQVASERCPEEFNGEFAQLSKFFPSTFPK
In the case of B1, the “binding to immobilized Tpm / displacement of biotin-HKa (in words)” value in experiment [1] (10 nM biotin-HKa, 200 ng chicken gizzard Tpm, 10 μM ZnCl2) is recorded as “binds”. The molecule further registered a Kd in experiment [1] (setting [5]) of around 2 nM.

B2: H/P domain: Histidine-Proline rich domain of HPRG, responsible for anti-angiogenic activity (protein)
chain: SVNIIHRPPPHGHHPHGPPPHGHHPHGPPPHGHPPHGPPPRHPPHGPPPHGHPPHGPPPHGHPPHGPPPHGHPPHGPPPHGHPPHGHGFHDHGPCDPPSHK
B2: the “affinity for immobilized Tpm relative to endostatin (fold higher)” value in experiment [1] (setting [6]) is “approximately 1,000 fold”. This molecule also returned a dissociation constant (Kd) in experiment [1] (setting [5]) of around 2 nM.

B3: endostatin: Zn2+-binding, antiangiogenic polypeptide comprised of the NC domain of collagen XVIII (protein, UniProt P39060 1572-1754, looked up)
Endostatin: HSHRDFQPVLHLVALNSPLSGGMRGIRGADFQCFQQARAVGLAGTFRAFLSSRLQDLYSIVRRADRAAVPIVNLKDELLFPSWEALFSGSEGPLKPGARIFSFDGKDVLRHPTWPQKSVWHGSDPNGRRLTESYCETWRTEAPSATGQASSLLGGRLLGQSAASCHHAYIVLCIENSFMTASK
modifications: Endostatin
For B3, in experiment [1], the “Kd relative to that reported previously by SPR (fold better)” value is reported as 50 fold and the “affinity relative to HKa or HKa-D5 binding (fold lower)” value is on record as “approximately 1,000 fold”. The Kd in experiment [1] (competition with 10 nM biotin-HKa, 10 μM ZnCl2) is around 2000 nM. Further, the Kd in experiment [2] was around 100000 nM.

B4: HKa D5: Recombinant HKa domain 5, 125 residue D5 domain, SEQ ID NO:26 (protein, listed as Homo sapiens)
chain: VSPPHTSMAPAQDEERDSGKEQGHTRRHDWGHEKQRKHNLGHGHKHERDQGHGHQRGHGLGHGHEQQHGLGHGHKFKLDDDLEHQGGHVLDHGHKHKHGHGHGKHKNKGKKNGKHNGWKTEHLAS
For the molecule B4, the results for the “inhibition of binding of HKa to purified immobilized Tpm (in words)” value in experiment [3] and in experiment [3] (listed as HKa domain 5) were “blocked binding” and “inhibits binding”, respectively. In addition, the Kd is around 2.1 nM in experiment [3] (from IC50 of competition with biotin-HKa (equation of b366), read-out: estimated Kd of binding to Tpm) and around 1 nM in experiment [1] (setting [5]). In addition, the “affinity for immobilized Tpm relative to endostatin (fold higher)” value in experiment [1] (setting [6]) was “approximately 1,000 fold”. Further, in experiment [4], the “inhibition of bFGF-induced EC proliferation (in words)” value is “inhibition”.

Usually Kd stands for the free concentration of one partner at which half of the binding sites on the other are occupied at equilibrium, for simple one-to-one binding.
